Data published in US20250223317A1, “KEAP1 INHIBITING PROTEIN-LIKE POLYMERS” (NORTHWESTERN UNIVERSITY, priority 2022, published 2025).

Test system: Antioxidant Response Element (ARE) Luciferase HepG2 Reporter cells
Description: Cells were plated at a seeding density of 25k cells/well into 96 well plates in cell growth media and allowed to incubate for 24 hours. […] After 24 hours, 10 μL of MTS reagent was added to each well, and the cells incubated for four hours at 37° C. Absorbance was measured at 490 nm using a Perkin Elmer EnSpire plate reader every hour after MTS addition. Viability was assessed after background subtraction from cell free control wells and calculated as relative viability based on the average of control wells. Viability is reported as a percentage of control groups and prepared for presentation using Prism9.
The reporter and cell viability assays were performed over a concentration range of 0 μM to 10 μM for each of the polymers described.
Cells were plated at a seeding density of 25k cells/well into 96 well plates in cell growth media and allowed to incubate for 24 hours. […] Luminescence was assessed using the Biotek SynergyNeo2 plate reader at the High Throughput Analysis Core at Northwestern University. Background luminescence of cell free controls wells was subtracted from test wells. […] Absorbance was measured at 490 nm using a Perkin Elmer EnSpire plate reader every hour after MTS addition. Viability was assessed after background subtraction from cell free control wells and calculated as relative viability based on the average of control wells. […]

DLG Homopolymer (RQDIDLGVSRR)
tolerability (MTS assay): well tolerated
